Source: patent US20220025023A1 (AC IMMUNE, published 2022)
Where no end group is shown, it is not given here.

T1: TDP-210 peptide (human)
T1 construct: 8-mer of human TDP-43; same ELISA method as for the biotinylated 15-mers
T1 peptide: FFSQYGDV

T2: TDP-211 peptide (human)
T2 construct: 8-mer of human TDP-43; same ELISA method as for the biotinylated 15-mers
T2 peptide: FSQYGDVM

T3: TDP-212 peptide (human)
T3 construct: 8-mer of human TDP-43; same ELISA method as for the biotinylated 15-mers
T3 peptide: SQYGDVMD

T4: TDP-213 peptide (human)
T4 construct: 8-mer of human TDP-43; same ELISA method as for the biotinylated 15-mers
T4 peptide: QYGDVMDV

T5: TDP-214 peptide (human)
T5 construct: 8-mer of human TDP-43; same ELISA method as for the biotinylated 15-mers
T5 peptide: YGDVMDVF

T6: TDP-216 peptide (human)
T6 construct: 8-mer of human TDP-43; same ELISA method as for the biotinylated 15-mers
T6 peptide: DVMDVFIP

T7: TDP-217 peptide (human)
T7 construct: 8-mer of human TDP-43; same ELISA method as for the biotinylated 15-mers
T7 peptide: VMDVFIPK

T8: TDP-218 peptide (human)
T8 construct: 8-mer of human TDP-43; same ELISA method as for the biotinylated 15-mers
T8 peptide: MDVFIPKP

T9: TDP-219 peptide (human)
T9 construct: 8-mer of human TDP-43; same ELISA method as for the biotinylated 15-mers
T9 peptide: DVFIPKPF

T10: TDP-220 peptide (human)
T10 construct: 8-mer of human TDP-43; same ELISA method as for the biotinylated 15-mers
T10 peptide: VFIPKPFR

T11: TDP-221 peptide (human)
T11 construct: 8-mer of human TDP-43; same ELISA method as for the biotinylated 15-mers
T11 peptide: FIPKPFRA

T12: TDP-222 peptide (human)
T12 construct: 8-mer of human TDP-43; same ELISA method as for the biotinylated 15-mers
T12 peptide: IPKPFRAF

T13: TDP-223 peptide (human)
T13 construct: 8-mer of human TDP-43; same ELISA method as for the biotinylated 15-mers
T13 peptide: PKPFRAFA

T14: TDP-224 peptide (human)
T14 construct: 8-mer of human TDP-43; same ELISA method as for the biotinylated 15-mers
T14 peptide: KPFRAFAF

T15: TDP-215 peptide (human)
T15 construct: same ELISA method as for the biotinylated 15-mers
T15 peptide: GDVMDVFI

T16: TDP-3 peptide (human)
T16 construct: Irrelevant control peptide; conjugated to Luminex beads in the assay; also called TDP-43 aa 310-370; irrelevant target
T16 peptide: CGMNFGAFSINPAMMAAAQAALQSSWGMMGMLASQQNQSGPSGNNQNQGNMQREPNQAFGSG

T17: TDP-1 peptide (human)
T17 construct: Immunogen peptide; conjugated to Luminex beads in the assay; also called TDP-43 aa 212-272
T17 peptide: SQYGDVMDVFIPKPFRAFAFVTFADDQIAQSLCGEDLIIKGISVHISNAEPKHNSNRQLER

T18: TP-24 peptide (human, also: biotinylated, site not given here)
T18 construct: 15-mer of human TDP-43 from the library spanning aa 199-285; captured on streptavidin plates
T18 peptide: REFFSQYGDVMDVFI

T19: TP-25 peptide (human, also: biotinylated, site not given here)
T19 construct: 15-mer of human TDP-43 from the library spanning aa 199-285; captured on streptavidin plates
T19 peptide: VMDVFIPKPFRAFAF

T20: TP-26 (also: biotinylated, site not given here)
T20 construct: also called TP-26 peptide
T20 peptide: FRAFAFVTFADDQIA

T21: TP-27 (also: biotinylated, site not given here)
T21 construct: also called TP-27 peptide
T21 peptide: ADDQIAQSLCGEDLI

T22: TP-28 (also: biotinylated, site not given here)
T22 construct: also called TP-28 peptide
T22 peptide: CGEDLIIKGISVHIS

T23: TP-29 (also: biotinylated, site not given here)
T23 construct: also called TP-29 peptide
T23 peptide: ISVHISNAEPKHNSN

T24: TP-30 (also: biotinylated, site not given here)
T24 construct: also called TP-30 peptide
T24 peptide: PKHNSNRQLERSGRF

T25: TP-31 (also: biotinylated, site not given here)
T25 construct: also called TP-31 peptide
T25 peptide: ERSGRFGGNPGGFGN


Legend:
TDP-210 peptide = molecular target: T1, TDP-210 peptide; assay: indirect ELISA, 8-mer peptide library
Protocol: (§1) Serum-free supernatants were harvested from stable hybridomas. The supernatants containing antibodies of interest were then screened by an indirect ELISA assay to determine epitopes. Epitopes were mapped using a library of TDP-43 15-mer peptides. Briefly, 96-well streptavidin-coated 96-well ELISA plates were incubated with 5 μg/mL of biotinylated 15-mer peptides spanning the amino acids (aa) 199-285 of human TDP-43 with 9 aa offset and 6 aa overlap. Plates were washed thoroughly with 0.05% Tween-20/PBS and then blocked with 1% bovine serum albumin (BSA) in 0.05% Tween-20/PBS for 1 hour at 37° C. The antibody contained in the hybridoma supernatant was then added at the indicated dilutions, and incubated for 2 hours at 37° C. after which the plates were washed as described previously. An AP-conjugated anti-mouse IgG secondary antibody (Jackson ImmunoResearch Laboratories, United Kingdom) was added at 1/1000 dilution in 0.05% Tween-20/PBS for 1 hour at 37° C. After the final wash, plates were incubated with pNPP (Sigma-Aldrich, Switzerland) an AP substrate solution, and read at 405 nm using an ELISA plate reader (Tecan).
(§2) Furthermore, antibodies were tested using an indirect ELISA on a peptide library of 8-mer peptides with 7 aa overlap covering the sequence of human TDP-43 from aa 210 to aa 231, using the same ELISA method as describe previously in this section.

TDP-211 peptide = molecular target: T2, TDP-211 peptide; assay: indirect ELISA, 8-mer peptide library
Protocol: as §1, §2

TDP-212 peptide = molecular target: T3, TDP-212 peptide; assay: indirect ELISA, 8-mer peptide library
Protocol: as §1, §2

TDP-213 peptide = molecular target: T4, TDP-213 peptide; assay: indirect ELISA, 8-mer peptide library
Protocol: as §1, §2

TDP-214 peptide = molecular target: T5, TDP-214 peptide; assay: indirect ELISA, 8-mer peptide library
Protocol: as §1, §2

TDP-216 peptide = molecular target: T6, TDP-216 peptide; assay: indirect ELISA, 8-mer peptide library
Protocol: as §1, §2

TDP-217 peptide = molecular target: T7, TDP-217 peptide; assay: indirect ELISA, 8-mer peptide library
Protocol: as §1, §2

TDP-218 peptide = molecular target: T8, TDP-218 peptide; assay: indirect ELISA, 8-mer peptide library
Protocol: as §1, §2

TDP-219 peptide = molecular target: T9, TDP-219 peptide; assay: indirect ELISA, 8-mer peptide library
Protocol: as §1, §2

TDP-220 peptide = molecular target: T10, TDP-220 peptide; assay: indirect ELISA, 8-mer peptide library
Protocol: as §1, §2

TDP-221 peptide = molecular target: T11, TDP-221 peptide; assay: indirect ELISA, 8-mer peptide library
Protocol: as §1, §2

TDP-222 peptide = molecular target: T12, TDP-222 peptide; assay: indirect ELISA, 8-mer peptide library
Protocol: as §1, §2

TDP-223 peptide = molecular target: T13, TDP-223 peptide; assay: indirect ELISA, 8-mer peptide library
Protocol: as §1, §2

TDP-224 peptide = molecular target: T14, TDP-224 peptide; assay: indirect ELISA, 8-mer peptide library
Protocol: as §1, §2

TDP-215 peptide = molecular target: T15, TDP-215 peptide; assay: indirect ELISA, 8-mer peptide library, OD 405 nm
Protocol: as §1, §2

TDP-3 peptide = molecular target: T16, TDP-3 peptide; assay: Luminex bead assay, TDP-3 peptide beads (irrelevant target)
TDP-1 peptide = molecular target: T17, TDP-1 peptide; assay: Luminex bead assay, antibody serial dilution, TDP-1 peptide beads
BSA = molecular target: T26, BSA (bovine, UniProt P02769); assay: indirect ELISA, control coat in the 15-mer series, hybridoma supernatant
T26 construct: not specified; also called bovine serum albumin

TP-24 peptide = molecular target: T18, TP-24 peptide; assay: indirect ELISA, biotinylated 15-mer peptide on streptavidin plate, hybridoma supernatant
Protocol: as §1

TP-25 peptide = molecular target: T19, TP-25 peptide; assay: as above
Protocol: as §1

TP-26 = molecular target: T20, TP-26; assay: indirect ELISA, biotinylated 15-mer on streptavidin plate, hybridoma supernatant
Protocol: as §1

TP-27 = molecular target: T21, TP-27; assay: as above
Protocol: as §1

TP-28 = molecular target: T22, TP-28; assay: as above
Protocol: as §1

TP-29 = molecular target: T23, TP-29; assay: as above
Protocol: as §1

TP-30 = molecular target: T24, TP-30; assay: as above
Protocol: as §1

TP-31 = molecular target: T25, TP-31; assay: as above
Protocol: as §1

T26 sequence (P02769 25-607 limits assumed): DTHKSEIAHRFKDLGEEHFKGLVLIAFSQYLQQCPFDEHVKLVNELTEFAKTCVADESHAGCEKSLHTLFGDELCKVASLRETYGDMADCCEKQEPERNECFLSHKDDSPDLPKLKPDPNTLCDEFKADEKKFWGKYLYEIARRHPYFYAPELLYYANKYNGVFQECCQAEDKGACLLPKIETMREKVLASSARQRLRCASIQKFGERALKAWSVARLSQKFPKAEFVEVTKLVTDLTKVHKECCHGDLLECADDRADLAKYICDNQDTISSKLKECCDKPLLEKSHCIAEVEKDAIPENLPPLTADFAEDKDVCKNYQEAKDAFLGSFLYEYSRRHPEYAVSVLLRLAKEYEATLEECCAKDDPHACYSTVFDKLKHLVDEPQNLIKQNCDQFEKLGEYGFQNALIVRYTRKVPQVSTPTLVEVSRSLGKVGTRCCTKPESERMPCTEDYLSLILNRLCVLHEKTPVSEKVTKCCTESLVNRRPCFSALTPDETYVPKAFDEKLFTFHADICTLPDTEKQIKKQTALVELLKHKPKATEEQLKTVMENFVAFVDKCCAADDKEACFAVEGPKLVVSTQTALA

binding result (TDP-210 peptide)	binding result (TDP-211 peptide)	binding result (TDP-212 peptide)	binding result (TDP-213 peptide)	binding result (TDP-214 peptide)	binding result (TDP-216 peptide)	binding result (TDP-217 peptide)	binding result (TDP-218 peptide)	binding result (TDP-219 peptide)	binding result (TDP-220 peptide)	binding result (TDP-221 peptide)	binding result (TDP-222 peptide)	binding result (TDP-223 peptide)	binding result (TDP-224 peptide)	binding result (TDP-215 peptide)	binding result (TDP-3 peptide)	EC50 (TDP-1 peptide)	binding result (BSA)	OD (TP-24 peptide)	OD (TP-25 peptide)	Binder	also measured
no binding	no binding	no binding	no binding	no binding	no binding	no binding	no binding	no binding	no binding	no binding	no binding	no binding	no binding	binds	no binding	< 0.01 nM	no binding	3.8 O.D. (405 nm)	1.2 O.D. (405 nm)	ACI-7062-415C4-Ab1 (antibody, IgG1, V domains shown, also called 415C4C6; clone 14) VH: QVTLKESGPGILQPSQTLSLTCSFSGFSLSTYGIGVGWIRQPSGKGLEWLAHIWWNDNKYYKTALKSRLTISKDTSNNQVFLKIASVDTADSATYYCARVYGNLYYFGYWGQGTTLTVSS VL: DVLMTQTPLSLPVSLGDQASISCRSSQSIVHSTGNTYLEWYLQKPGQSPKLLIYKVSNRFSGVPDRFSGSGSGTDFTLKISRVEAEDLGVYYCFQGSRVPTFGAGTKLELKR	binding result (TP-26): no binding; binding result (TP-27): no binding; binding result (TP-28): no binding; binding result (TP-29): no binding; binding result (TP-30): no binding; binding result (TP-31): no binding
no binding	no binding	no binding	no binding	no binding	no binding	no binding	no binding	no binding	no binding	no binding	no binding	no binding	no binding	binds	no binding	< 0.01 nM	no binding	3.2 O.D. (405 nm)	1.2 O.D. (405 nm)	ACI-7062-412E12-Ab1 (antibody, IgG1, V domains shown, also called 412E12A2; clone 10) VH: DVQLVESGGGLVQPGGSRRLSCAASGFTFSRFGMHWVRQAPEKGLEWVAYIRSGSDIIYYADSVKGRFTISRDNPENTLFLQMTSLRSEDTAMYYCARSGTTVPFDYWGQGTSLTVSS VL: DIVMTQSPSSLAMSVGQKVTMSCKSSQSLLNSGDQKNYLAWYQQKPGQSPELLLYFASTRASGVPDRFIGSGSGTDFSLTISSVQAEDLADYFCQQHYSIPLTFGAGTKLELKR	binding result (TP-26): no binding; binding result (TP-27): no binding; binding result (TP-28): no binding; binding result (TP-29): no binding; binding result (TP-30): no binding; binding result (TP-31): no binding
